The assay addresses AtoB (Aspergillus ochraceus LZDX-32-15). Kind of assay: crystal structure.

AtoB (enzyme) had a stoichiometry N of 2.
